{"source": "paper PMC4980769", "about": "(2016)", "molecules": {"B1": {"name": "recombinant wild-type AgrC (cytosolic domain) (domain or fragment)", "chain": "KEMKYKRNQEEIETYYEYTLKIEAINNEMRKFRHDYVNILTPLSEYIREDDMPGLRDYFNKNIVPMKDNLQMNAIKLNGIENLKVREIKGLITAKILRAQEMNIPISIEIPDEVSSINLNMIDLSRSIGIILDNAIEASTEIDDPIIRVAFIESENSVTFIVMNKCADDIPRIHELFQESFSTKGEGRGLGLSTLKEIADNADNVLLDTIIENGFFIQKVEIINN"}}, "key": {"[1]": {"biological_target": "AgrA full length (AgrAFL) (Staphylococcus aureus) (UniProt P0A0I7)", "test": "BLI; AgrAFL (ligand) immobilised on amine reactive 2nd generation (AR2G) tips; AgrC proteins as analytes at different concentrations; 20 mM HEPES pH 7.6, 200 mM KCl, 2% glycerol; AgrC proteins incubated separately with 5 uM DTT and H2O2; Octet Data Analysis Software v 8.0"}, "[2]": {"biological_target": "AgrA full length (AgrAFL) (Staphylococcus aureus) (UniProt P0A0I7)", "test": "BLI", "settings": "domain or fragment"}, "[3]": {"biological_target": "AgrA full length (AgrAFL) (Staphylococcus aureus) (UniProt P0A0I7)", "test": "BLI; DTT", "settings": "domain or fragment"}, "[4]": {"biological_target": "AgrA full length (AgrAFL) (Staphylococcus aureus) (UniProt P0A0I7)", "test": "BLI; H2O2", "settings": "domain or fragment"}, "[5]": {"biological_target": "T1, AgrA full length (AgrAFL) (Staphylococcus aureus, UniProt P0A0I7 1-238)", "T1 chain": "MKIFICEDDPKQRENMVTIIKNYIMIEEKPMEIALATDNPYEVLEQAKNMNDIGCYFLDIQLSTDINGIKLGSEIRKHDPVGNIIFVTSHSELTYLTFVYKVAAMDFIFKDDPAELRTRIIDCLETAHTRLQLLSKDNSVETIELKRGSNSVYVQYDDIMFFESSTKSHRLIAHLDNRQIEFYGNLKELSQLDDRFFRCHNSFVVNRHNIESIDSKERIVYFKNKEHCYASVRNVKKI", "test": "BLI; DTT"}, "[6]": {"biological_target": "T1, AgrA full length (AgrAFL)", "test": "BLI"}, "[7]": {"biological_target": "T1, AgrA full length (AgrAFL)", "test": "BLI; H2O2"}}, "data": [{"molecule": "recombinant AgrC Y223C protein (domain or fragment)", "values": [{"measurement": "fold reduction in binding affinity against wild-type AgrC", "setting": "[1]", "value": "< 10", "unit": "fold"}]}, {"molecule": "recombinant AgrC Y223C protein", "values": [{"measurement": "Kd", "setting": "[2]", "value": 105, "unit": "nM"}, {"measurement": "Kd", "setting": "[3]", "value": 44.9, "unit": "nM"}, {"measurement": "Kd", "setting": "[4]", "value": 31.4, "unit": "nM"}]}, {"molecule": "B1", "values": [{"measurement": "Kd", "setting": "[5]", "value": 99.8, "unit": "nM"}, {"measurement": "Kd", "setting": "[6]", "value": 93.1, "unit": "nM"}, {"measurement": "Kd", "setting": "[7]", "value": 4.21, "unit": "nM"}]}]}
